This note sets out measurements from patent US7122343 (WARF WISCONSIN ALUMNI RESEARCH FOUNDATION, dated 2006).

The experiment has as its target T1, hMre11-hRad50 protein complex (human, UniProt P49959 2-708; Q92878 1-1312).
T1 construct: Endogenous complex from human cells; It also holds p95 and a protein of about 400 kDa; also called hMre11/hRad50 complex; hRad50/hMre11 complex
Put plainly: co-immunoprecipitation.

T1 sequence (P49959 2-708 limits assumed, chain 1 of 2): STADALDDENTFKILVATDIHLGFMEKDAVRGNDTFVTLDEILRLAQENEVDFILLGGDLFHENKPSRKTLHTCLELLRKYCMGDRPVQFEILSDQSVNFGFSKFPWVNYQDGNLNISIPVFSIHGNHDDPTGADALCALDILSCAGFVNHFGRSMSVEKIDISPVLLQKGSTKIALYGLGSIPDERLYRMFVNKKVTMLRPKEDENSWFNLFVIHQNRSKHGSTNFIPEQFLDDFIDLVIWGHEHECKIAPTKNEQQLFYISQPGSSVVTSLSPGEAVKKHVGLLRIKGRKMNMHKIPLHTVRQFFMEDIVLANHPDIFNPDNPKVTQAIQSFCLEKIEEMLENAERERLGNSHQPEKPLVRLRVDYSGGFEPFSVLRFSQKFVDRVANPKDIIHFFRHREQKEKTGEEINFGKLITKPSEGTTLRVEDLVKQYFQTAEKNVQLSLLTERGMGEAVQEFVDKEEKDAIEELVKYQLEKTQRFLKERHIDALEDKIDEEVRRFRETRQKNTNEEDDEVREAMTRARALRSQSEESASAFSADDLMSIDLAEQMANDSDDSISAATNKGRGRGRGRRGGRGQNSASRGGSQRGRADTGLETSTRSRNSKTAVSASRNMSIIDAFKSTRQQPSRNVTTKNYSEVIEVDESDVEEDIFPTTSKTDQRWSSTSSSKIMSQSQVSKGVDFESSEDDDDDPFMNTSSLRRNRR
T1 sequence (Q92878 whole entry, chain 2 of 2): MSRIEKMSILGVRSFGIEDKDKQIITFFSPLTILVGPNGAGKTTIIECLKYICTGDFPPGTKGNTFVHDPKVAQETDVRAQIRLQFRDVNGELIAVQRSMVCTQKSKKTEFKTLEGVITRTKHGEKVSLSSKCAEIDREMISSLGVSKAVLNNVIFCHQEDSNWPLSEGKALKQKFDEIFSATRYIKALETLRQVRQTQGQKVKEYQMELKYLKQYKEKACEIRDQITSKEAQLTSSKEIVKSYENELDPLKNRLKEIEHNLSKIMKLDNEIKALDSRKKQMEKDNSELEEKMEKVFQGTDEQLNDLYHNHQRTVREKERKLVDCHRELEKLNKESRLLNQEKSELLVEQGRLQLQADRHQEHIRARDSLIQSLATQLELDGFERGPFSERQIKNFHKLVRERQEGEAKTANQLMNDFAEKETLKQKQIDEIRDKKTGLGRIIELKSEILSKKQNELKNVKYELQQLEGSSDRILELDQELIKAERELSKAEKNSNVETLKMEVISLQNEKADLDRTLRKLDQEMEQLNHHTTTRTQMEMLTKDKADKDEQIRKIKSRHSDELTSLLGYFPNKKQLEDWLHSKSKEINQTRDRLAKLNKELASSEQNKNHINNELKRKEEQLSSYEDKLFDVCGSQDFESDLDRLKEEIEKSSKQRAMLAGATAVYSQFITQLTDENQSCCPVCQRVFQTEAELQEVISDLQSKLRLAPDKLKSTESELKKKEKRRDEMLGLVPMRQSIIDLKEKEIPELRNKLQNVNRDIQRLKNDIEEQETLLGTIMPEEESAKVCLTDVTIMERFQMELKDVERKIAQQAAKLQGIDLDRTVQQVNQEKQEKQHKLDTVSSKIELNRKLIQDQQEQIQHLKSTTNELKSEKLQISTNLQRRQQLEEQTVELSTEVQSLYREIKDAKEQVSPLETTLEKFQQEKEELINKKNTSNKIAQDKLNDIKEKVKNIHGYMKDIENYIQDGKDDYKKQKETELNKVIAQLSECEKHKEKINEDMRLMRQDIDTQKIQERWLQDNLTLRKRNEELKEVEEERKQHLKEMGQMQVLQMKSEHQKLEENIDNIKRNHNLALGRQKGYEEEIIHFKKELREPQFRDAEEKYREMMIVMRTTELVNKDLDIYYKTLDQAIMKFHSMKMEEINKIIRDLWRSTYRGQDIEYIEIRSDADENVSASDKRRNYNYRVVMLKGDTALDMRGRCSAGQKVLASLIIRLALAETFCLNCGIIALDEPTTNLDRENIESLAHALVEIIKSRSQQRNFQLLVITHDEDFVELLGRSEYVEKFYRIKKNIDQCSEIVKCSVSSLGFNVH

B1: hRad51 (other, human, UniProt Q06609 2-339, looked up)
chain: AMQMQLEANADTSVEEESFGPQPISRLEQCGINANDVKKLEEAGFHTVEAVAYAPKKELINIKGISEAKADKILAEAAKLVPMGFTTATEFHQRRSEIIQITTGSKELDKLLQGGIETGSITEMFGEFRTGKTQICHTLAVTCQLPIDRGGGEGKAMYIDTEGTFRPERLLAVAERYGLSGSDVLDNVAYARAFNTDHQTQLLYQASAMMVESRYALLIVDSATALYRTDYSGRGELSARQMHLARFLRMLLRLADEFGVAVVITNQVVAQVDGAAMFAADPKKPIGGNIIAHASTTRLYLRKGRGETRICKIYDSPCLPEAEAMFAINADGVGDAKD
notes: also called human Rad51 homolog
As to B1, the binding result was “no binding”.
